The nature of this data set: Pharmacokinetics study in mice after tail vein injection. Format: in vivo. The settings on record: fasted CD1 mice, i.v. tail vein, 16 Qg/kg of insulin, 3-60 min, ELISA, n = 5.

Take insulin: the “plasma concentration of insulin after injection” value is on record as “not detectable at any time point”.

These data come from article PMC5352466 (Bioconjugate chemistry, 2017).
